B1: r16_88_TrROS_Hall (parent)
chain: EVIELKIKFKTPEQREKLKEIAKKLNAEVVEEKDGEVIIRFKTPEQAERALKEAEKLGAEVEL

Variants of B1 are the subject of the data set. Nature of the data set: folding stability dG (cDNA display proteolysis); higher = more stable. Conditions: PBS, room temperature.
Consider EVIELKIKFKTPEQREKLKEIAKKLNAEVVEEKDGEVIIRFKTPEQAERALKEAEKLPAEVEL [G58P], for which the “folding stability dG” value was determined as 3.83 kcal/mol. Turning to EVIELKIKFKTPEQREKLKEIAKKLNAEVVEEKDGEVIIRFKTPEQAERALKEAEKHGAEVEL [L57H], the “folding stability dG” value turned out to be 4.26 kcal/mol. In the case of EVIELKIKFKTPEQREKLKEIAKKLNAEVVEEKDGEGIIRFKTPEQAERALKEAEKLGAEVEL [V37G] it was 3.63 kcal/mol; in that of EVIELKIKFKTPEQREKLKEIAKKLNAEVVEEKDGEDIIRFKTPEQAERALKEAEKLGAEVEL [V37D], 3.02 kcal/mol. With EVIELKIKFKTPEQREKLKEIAKKLNAEVVEEKDGEVIIRFKTPEQAERADKEAEKLGAEVEL [L51D], the “folding stability dG” value was found to be 3.96 kcal/mol. In the case of EVIELKIKFKTPEQREKLKEIAKKLNAEVVEEKDGEVIIRFKTPEQAERAKKEAEKLGAEVEL [L51K] it was 4.61 kcal/mol. In the case of EVIELKIKFKTFEQREKLKEIAKKLNAEVVEEKDGEVIIRFKTPEQAERALKEAEKLGAEVEL [P12F], the “folding stability dG” value is 4.85 kcal/mol. Take EVIELKIKFKTAEQREKLKEIAKKLNAEVVEEKDGEVIIRFKTPEQAERALKEAEKLGAEVEL [P12A]: the “folding stability dG” value came out at 4.39 kcal/mol. As to EVIELKIKFKTLEQREKLKEIAKKLNAEVVEEKDGEVIIRFKTPEQAERALKEAEKLGAEVEL [P12L], the “folding stability dG” value was determined as 4.31 kcal/mol.

For EVIELKIKFKTPEQREKLKEIAKKLNAEVVEEKDGEVIIRFKFPEQAERALKEAEKLGAEVEL [T43F], the “folding stability dG” value was 4.41 kcal/mol. Regarding EVIELKIKFKTPEQREKLKEIAKKLNAEVVEEKDGEVIIRFKTPEQAERALKEAEKLGAVVEL [E60V], the “folding stability dG” value was found to be 4.54 kcal/mol. For EVIELKIKFKTPEQREKLKEIAKKLNAEVVEEKDGEVIIRFKTPEQAERALKEAEKLGASVEL [E60S], the “folding stability dG” value is 4.28 kcal/mol. On to EVIELKIKFKTPMQREKLKEIAKKLNAEVVEEKDGEVIIRFKTPEQAERALKEAEKLGAEVEL [E13M], for which the “folding stability dG” value worked out at 4.65 kcal/mol.

In the case of EVIELKIKFKTPWQREKLKEIAKKLNAEVVEEKDGEVIIRFKTPEQAERALKEAEKLGAEVEL [E13W], the “folding stability dG” value worked out at 4.85 kcal/mol. EVIELKIKFKTPEQREKLKEIAKKLNAEVVEEKDGEVINRFKTPEQAERALKEAEKLGAEVEL [I39N]: the “folding stability dG” value came to 2.82 kcal/mol. With EVIELKIKFKTPEQREKLKEIAKKLNAEVVEEKDGEVIMRFKTPEQAERALKEAEKLGAEVEL [I39M] the figure was 4.65 kcal/mol. In the case of EVIELKIKFKTPEQREKLKEIAKKLNAEVVEEKDGEVIIEFKTPEQAERALKEAEKLGAEVEL [R40E] it was 3.93 kcal/mol; in that of EVIELKIKFKTPEQREKLKEIAKKLNAEVVEEKDGEVIIQFKTPEQAERALKEAEKLGAEVEL [R40Q], 4.07 kcal/mol; in that of EVIELKIKFKTPEQREKLKEIAKKLNAEVVEEKDGEVCIRFKTPEQAERALKEAEKLGAEVEL [I38C], 4.3 kcal/mol. Turning to EVIELKIKFKTPEQREKLKEIAKKLNAEVVEEKDGEVIIRFKTPEQAERALKGAEKLGAEVEL [E53G], the “folding stability dG” value was determined as 4.07 kcal/mol. With EVIELKIKFKTPEQREKLKEIAKKLNAEVVEEKDGEVIIRFMTPEQAERALKEAEKLGAEVEL [K42M], the “folding stability dG” value was determined as 4.18 kcal/mol. In the case of EVIELKIKFKTPEQREKLKEIAKKLNAEVVEEKDGEVIIRFKTPEQAERALIEAEKLGAEVEL [K52I] it was 4.03 kcal/mol; in that of EVIELKIKFKTPEQREKLKEIAKKLNAEVVEEKDGEVIIRFKTTEQAERALKEAEKLGAEVEL [P44T], 4.46 kcal/mol; in that of EVIELKIKFKTPEQREKLKEIAKKLNAEVVEEKDGEVIIRFKTPWQAERALKEAEKLGAEVEL [E45W], 4.37 kcal/mol.

For the variant EVIELKIKFKTPEQREKLKEIAKKLNAEVVEEKDGEVIIRFKTPPQAERALKEAEKLGAEVEL [E45P], the “folding stability dG” value stood at 4.16 kcal/mol. With EVIELKIKFKTPEQREKLSEIAKKLNAEVVEEKDGEVIIRFKTPEQAERALKEAEKLGAEVEL [K19S] the figure was 4.25 kcal/mol; with EVIELKIKFKTPEQREKLKEIAKKLAAEVVEEKDGEVIIRFKTPEQAERALKEAEKLGAEVEL [N26A], 4.41 kcal/mol; with EVIELKIKFKTPEQREKLKEIAKKLIAEVVEEKDGEVIIRFKTPEQAERALKEAEKLGAEVEL [N26I], 4.19 kcal/mol. With EVIELKIKFKTPEQREKLKEIAKKLEAEVVEEKDGEVIIRFKTPEQAERALKEAEKLGAEVEL [N26E] the figure was 4.09 kcal/mol; with EVIELKIKFKTPEQREKLKEIAKCLNAEVVEEKDGEVIIRFKTPEQAERALKEAEKLGAEVEL [K24C], 4.53 kcal/mol. With EVIELKIKFKTPEQREKLKEIAKFLNAEVVEEKDGEVIIRFKTPEQAERALKEAEKLGAEVEL [K24F], the “folding stability dG” value came out at 4.67 kcal/mol.

Turning to EVIELKIKFKTPEQREKLKEIAKKLNAEVVEDKDGEVIIRFKTPEQAERALKEAEKLGAEVEL [E32D], the “folding stability dG” value turned out to be 4.39 kcal/mol.

For the variant EVIELKIKFKTPEQREKLKEIAKKLNAEVVEVKDGEVIIRFKTPEQAERALKEAEKLGAEVEL [E32V], the “folding stability dG” value is 4.54 kcal/mol. Take EVIELKIKFKTPEQREKLKEIAKKLNAEVVEEKDCEVIIRFKTPEQAERALKEAEKLGAEVEL [G35C]: the “folding stability dG” value was determined as 4.48 kcal/mol. In the case of EVIELKIKFKTPEQREKLKEIAKKHNAEVVEEKDGEVIIRFKTPEQAERALKEAEKLGAEVEL [L25H] it was 4.62 kcal/mol; in that of EVIELKIKFKTPEQREKLKEIAKKQNAEVVEEKDGEVIIRFKTPEQAERALKEAEKLGAEVEL [L25Q], 4.42 kcal/mol.

In the case of EVIELKIKFKTPEQREKLKEIAKKLNAEVVEEKDGEVIIRNKTPEQAERALKEAEKLGAEVEL [F41N], the “folding stability dG” value stood at 3.33 kcal/mol.

Consider EVIELKIKFKTPEQREKLKEIAKKLNAEVVEEKDGEVIIRSKTPEQAERALKEAEKLGAEVEL [F41S], for which the “folding stability dG” value came to 4.03 kcal/mol. In the case of EVIELKIKFKTPEQREKLKEIAKKLNAEVVEEKDGEVIIRPKTPEQAERALKEAEKLGAEVEL [F41P] it was 3.46 kcal/mol.

EVIELKIKFKTPEQREKLKEIAKKLNAEVVEEKDGEVIIRAKTPEQAERALKEAEKLGAEVEL [F41A]: the “folding stability dG” value came out at 4.49 kcal/mol. As for EVIELKIKFKTPEQAEKLKEIAKKLNAEVVEEKDGEVIIRFKTPEQAERALKEAEKLGAEVEL [R15A], the “folding stability dG” value was found to be 4.13 kcal/mol. In the case of EVIELKIKFKTPEQHEKLKEIAKKLNAEVVEEKDGEVIIRFKTPEQAERALKEAEKLGAEVEL [R15H] it was 4.27 kcal/mol.

Consider EVIELKIKFKTPEQDEKLKEIAKKLNAEVVEEKDGEVIIRFKTPEQAERALKEAEKLGAEVEL [R15D], for which the “folding stability dG” value turned out to be 4.11 kcal/mol.

The values above are taken from the MegaScale stability set (Tsuboyama et al. 2023).
